From patent US20220347265 come the findings set out here.

For this series, the target named is C3b (Complement Technology, Cat #A114), labeled with ANS (UniProt P01024).
UniProt P01024, sequence (P01024 whole entry, looked up): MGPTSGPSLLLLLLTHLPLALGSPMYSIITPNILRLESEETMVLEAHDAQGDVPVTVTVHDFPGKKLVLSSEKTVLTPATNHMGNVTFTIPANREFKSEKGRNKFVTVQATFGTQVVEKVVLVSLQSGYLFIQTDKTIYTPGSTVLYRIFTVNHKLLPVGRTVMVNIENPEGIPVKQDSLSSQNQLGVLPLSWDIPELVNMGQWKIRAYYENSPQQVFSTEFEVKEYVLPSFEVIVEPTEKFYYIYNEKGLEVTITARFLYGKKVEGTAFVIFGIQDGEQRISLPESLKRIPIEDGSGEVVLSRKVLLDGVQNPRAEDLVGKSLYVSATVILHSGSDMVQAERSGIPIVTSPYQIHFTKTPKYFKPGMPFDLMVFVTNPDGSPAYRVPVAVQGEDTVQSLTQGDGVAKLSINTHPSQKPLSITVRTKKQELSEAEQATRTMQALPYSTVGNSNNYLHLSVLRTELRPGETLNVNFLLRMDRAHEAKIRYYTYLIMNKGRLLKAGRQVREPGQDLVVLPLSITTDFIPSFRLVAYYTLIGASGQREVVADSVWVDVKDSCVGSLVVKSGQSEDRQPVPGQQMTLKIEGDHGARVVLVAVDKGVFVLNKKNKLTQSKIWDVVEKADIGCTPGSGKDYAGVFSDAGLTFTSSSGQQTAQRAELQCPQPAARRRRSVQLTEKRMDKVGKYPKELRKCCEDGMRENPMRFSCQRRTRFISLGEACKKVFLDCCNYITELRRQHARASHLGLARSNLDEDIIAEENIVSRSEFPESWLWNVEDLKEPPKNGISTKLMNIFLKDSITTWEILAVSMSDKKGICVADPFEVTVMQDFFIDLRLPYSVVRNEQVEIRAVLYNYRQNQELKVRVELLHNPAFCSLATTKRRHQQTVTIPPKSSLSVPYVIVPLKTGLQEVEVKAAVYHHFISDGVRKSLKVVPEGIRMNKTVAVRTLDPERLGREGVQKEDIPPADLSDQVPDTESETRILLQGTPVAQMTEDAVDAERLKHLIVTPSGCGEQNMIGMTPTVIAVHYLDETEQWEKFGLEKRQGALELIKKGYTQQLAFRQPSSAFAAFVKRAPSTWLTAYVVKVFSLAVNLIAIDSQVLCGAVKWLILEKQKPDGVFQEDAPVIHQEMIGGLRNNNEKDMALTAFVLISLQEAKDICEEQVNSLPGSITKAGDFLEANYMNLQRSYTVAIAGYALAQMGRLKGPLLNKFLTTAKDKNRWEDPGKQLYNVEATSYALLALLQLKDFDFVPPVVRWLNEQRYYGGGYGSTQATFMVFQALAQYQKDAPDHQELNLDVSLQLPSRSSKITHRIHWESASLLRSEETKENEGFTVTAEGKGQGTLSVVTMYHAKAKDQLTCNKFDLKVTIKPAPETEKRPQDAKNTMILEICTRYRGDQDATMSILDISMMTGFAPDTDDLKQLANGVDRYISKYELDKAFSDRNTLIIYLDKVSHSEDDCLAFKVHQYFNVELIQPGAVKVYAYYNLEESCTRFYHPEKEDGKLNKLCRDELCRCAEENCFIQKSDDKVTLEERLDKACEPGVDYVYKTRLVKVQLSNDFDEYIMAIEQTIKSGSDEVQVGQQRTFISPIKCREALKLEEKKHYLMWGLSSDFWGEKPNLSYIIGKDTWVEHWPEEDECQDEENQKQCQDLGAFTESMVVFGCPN
Turning to A240G CFI protein, the “fluorescence cofactor assay: cleavage of ANS-labeled C3b to iC3b (change in RFUs over time), with cofactor CFH, MCP or CR1, against wild type CFI” value is “certain CFI mutations (G119R, A240G, and P553S) were associated with greatly reduced CFI protein function”.
For A300T CFI protein the value was “the A300T mutation appeared to have relatively little impact on CFI function”; for G119R CFI protein, “certain CFI mutations (G119R, A240G, and P553S) were associated with greatly reduced CFI protein function”.
As for P553S CFI protein, the “fluorescence cofactor assay: cleavage of ANS-labeled C3b to iC3b (change in RFUs over time), with cofactor CFH, MCP or CR1, against wild type CFI” value is “certain CFI mutations (G119R, A240G, and P553S) were associated with greatly reduced CFI protein function”.
